T1: recombinant mouse MAdCAM (mouse, UniProt Q61826 22-365)
T1 sequence (looked up): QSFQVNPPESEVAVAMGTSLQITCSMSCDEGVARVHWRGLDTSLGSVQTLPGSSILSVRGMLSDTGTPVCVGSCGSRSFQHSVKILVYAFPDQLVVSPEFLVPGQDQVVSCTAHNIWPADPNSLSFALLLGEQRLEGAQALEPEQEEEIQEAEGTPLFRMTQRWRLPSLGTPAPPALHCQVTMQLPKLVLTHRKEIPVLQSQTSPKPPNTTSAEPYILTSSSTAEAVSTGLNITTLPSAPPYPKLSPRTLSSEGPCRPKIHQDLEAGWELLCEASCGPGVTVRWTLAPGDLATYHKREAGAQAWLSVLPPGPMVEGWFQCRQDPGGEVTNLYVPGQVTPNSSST

T2: human MAdCAM (full length) (human, UniProt Q13477 19-382)
T2 sequence (looked up): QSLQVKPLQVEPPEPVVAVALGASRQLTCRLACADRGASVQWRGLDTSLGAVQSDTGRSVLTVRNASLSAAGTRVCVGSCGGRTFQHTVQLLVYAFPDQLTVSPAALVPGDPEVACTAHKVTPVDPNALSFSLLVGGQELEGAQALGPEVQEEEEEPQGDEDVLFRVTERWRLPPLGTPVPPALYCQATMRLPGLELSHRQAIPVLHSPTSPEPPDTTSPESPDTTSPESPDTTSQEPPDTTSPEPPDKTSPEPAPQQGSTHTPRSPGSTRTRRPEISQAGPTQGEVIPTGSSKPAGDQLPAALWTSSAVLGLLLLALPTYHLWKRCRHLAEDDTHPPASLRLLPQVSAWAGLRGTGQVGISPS

T3: chimeric cynomolgus/human MAdCAM (cynomolgus; human, UniProt Q13477 226-382, limits assumed)
T3 sequence: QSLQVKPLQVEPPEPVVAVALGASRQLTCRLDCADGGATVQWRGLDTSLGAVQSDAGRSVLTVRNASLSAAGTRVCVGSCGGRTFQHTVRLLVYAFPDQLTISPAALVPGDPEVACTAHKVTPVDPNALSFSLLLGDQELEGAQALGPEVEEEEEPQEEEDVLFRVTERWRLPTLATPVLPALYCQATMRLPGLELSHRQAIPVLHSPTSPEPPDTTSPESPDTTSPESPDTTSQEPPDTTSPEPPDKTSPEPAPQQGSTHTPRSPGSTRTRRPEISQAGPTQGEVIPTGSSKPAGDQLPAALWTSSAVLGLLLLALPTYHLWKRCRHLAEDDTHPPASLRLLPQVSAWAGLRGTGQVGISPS


Experiments:
[1] = target: MAdCAM-IgG1 Fc fusion protein (human); assay: cell-based or functional assay
[2] = target: T1, recombinant mouse MAdCAM; assay: ELISA
[3] = target: T4, MAdCAM-IgG1 Fc fusion protein (human); assay: SPR BIAcore protocol 2: mAb amine-coupled, MAdCAM-IgG1 Fc injected
T4 construct: Made in CHO-DHFR cells; also called MAdCAM-IgFc
Experimental: Affinity-purified mAb were immobilized onto the dextran layer of a CMS biosensor chip using amine coupling. […] Samples of MAdCAM-IgG₁ Fc fusion protein in running buffer were prepared at concentrations ranging from 0.2-55 nM (a 0 nM solution comprising running buffer alone was included as a zero reference). Samples were randomized and injected in duplicate for 3 mM each across 4 flow cells using HBS-EP (10 mM HEPES pH 7.4, 150 mM NaCl, 3 mM EDTA, 0.005% Surfactant P20) as running buffer. A flow rate of 100 μL/min was used to minimize mass transport limitations. Dissociation of MAdCAM-IgG₁ Fc fusion protein was monitored for 180 mins, the surface regenerated by a 6 sec injection of 25 mM H₃PO₄ (50 μL/min), or 10 mM (6.22.2), 20 mM (6.67.1, 6.73.2, 6.77.1) to 25 mM (6.34.2) and 45 mM NaOH (6.14.2) and the data analysed using the BIAevaluation (v3.1) software package.

[4] = target: T4, MAdCAM-IgG1 Fc fusion protein; assay: cell-based or functional assay; remark: listed apart in the source
[5] = target: T2, human MAdCAM (full length); assay: cell-based or functional assay
[6] = target: T4, MAdCAM-IgG1 Fc fusion protein; assay: SPR BIAcore protocol 1: mAb captured, MAdCAM-IgG1 Fc injected
Experimental: To perform kinetic analyses, a high density mouse anti-human (IgG₂ and IgG₄) antibody surface over a CMS BIAcore sensor chip was prepared using routine amine coupling. Hybridoma supernatants were diluted 10, 5, 2-fold in HBS-P (10 mM HEPES pH 7.4, 150 mM NaCl, 0.005% Surfactant P20) running buffer containing 100 μg/mL BSA and 10 mg/mL carboxymethyldextran or used neat. Each mAb was captured onto a separate surface using a […] contact time and a 5 mM wash for stabilization of the mAb baseline. MAdCAM-IgG₁ Fc (141 nM) fusion protein was then injected at over all surfaces for one minute, followed by a 3 mM dissociation. The data were normalized for the amount of antibody captured on each surface and evaluated with global fit Langmuir 1:1, using baseline drift models available on the BIAevaluation software provided by BIAcore.

[7] = target: T3, chimeric cynomolgus/human MAdCAM; assay: cell-based or functional assay

Binder	MAdCAM IgG1 Fc fusion Assay Mean IC50 (Modified) [1] [µg/mL]	binding result [2]	Kd [3] [nM]	koff [3] [s⁻¹]	kon [3] [M⁻¹ s⁻¹]	Mean IC50, JY cell adhesion to MAdCAM IgG1 Fc fusion [4] [µg/mL]	Mean IC50, JY cell adhesion, MAdCAM FlpIn CHO Assay [5] [µg/mL]	Kd [6] [nM]	koff [6] [s⁻¹]	kon [6] [M⁻¹ s⁻¹]	Functional IC50, cynomolgus/human MAdCAM-CHO/JY adhesion assay [7] [µg/mL]
modified anti-MAdCAM monoclonal antibody 6.34.2-mod (antibody, human IgG2, kappa, V domains shown) VH: QVQLVESGGGVVQPGRSLRLSCAASGFTFSSYGMHWVRQAPGKGLEWVAVISNDGNNKYYADSVKGRFTISRDNSKNTLYLQMNSLRAEDTAVYYCARDSTAITYYYYGMDVWGQGTTVTVSS VL: DIQMTQSPSSLSASVGDRVTITCRASQSISSYLNWYQQKPGKAPKLLIYAASGLKRGVPSRFSGSGSGTDFTLTISSLQPEDFATYYCHQSYSLPFTFGPGTKVDIKR	0.049										
anti-MAdCAM monoclonal antibody 1.7.2 (antibody, human IgG2, kappa, V domains shown, human IgG2 kappa from hybridoma 1.7.2; biotinylated for staining of human sections) VH: EVQLVESGGGLVKPGGSLRLSCVASGFTFTNAWMIWVRQAPGKGLEWVGRIKRKTDGGTTDYAAPVKGRFTISRDDSKNTLYLQMNSLKTEDTAVYYCTTGGVAEDYWGQGTLVTVSS VL: not shown		no binding	0.0236	1.3e-07	5500	0.03	0.052	≤ 0.042	≤ 1e-05	240000	
anti-MAdCAM monoclonal antibody 1.8.2 (antibody, human IgG2, kappa, V domains shown, human IgG2 kappa from hybridoma 1.8.2) VH: EVQLVESGGGLVKPGGSLRLSCVVSGFTFTNAWMIWVRQAPGKGLEWVGRIKRKTDGGTTDYAAPVKGRFTISRDDSKNTLYLQMNSLKTEDTAVYYCTTGGVAEDYWGQGTLVTVSS VL: not shown		no binding	0.128	2.3e-05	180000	0.027	0.424	≤ 0.035	≤ 1e-05	290000	
modified anti-MAdCAM monoclonal antibody 7.26.4-mod (antibody, human IgG2, kappa, V domains shown) VH: QVQLVQSGAEVKKPGASVKVSCEASGYTFTSYGIDWVRQAPGQGLEWMGWISVYSGNTNYAQKLQGRVTMSTDTSTSTAYMELRSLRSDDTAVYYCAREGSSSSGDYYYGMDVWGQGTTVTVSS VL: DIVMTQTPLSLSVTPGQPASISCKSSQSLLYSDGKTYLFWYLQKPGQPPQLLIYEVSNRFSGVPDRFSGSGSGTDFTLKISRVEAEDVGVYYCMQSIQLPWTFGQGTKVEIKR	0.033										
modified anti-MAdCAM monoclonal antibody 6.77.1-mod (antibody, human IgG2, kappa, V domains shown) VH: EVQLVESGGGLVKPGGSLRLSCAASGFTFSSYSMNWVRQAPGKGLEWVSSISSSSSYIYYADSVKGRFTISRDNAKNSLYLQMNSLRAEDTAVYYCARDGYSSGWSYYYYYGMDVWGQGTTVTVSS VL: DIVMTQTPLSLSVTPGQPASISCKSSQSLLLSDGKTYLNWYLQKPGQPPQLLIYEVSNRFSGVPDRFSGSGSGTDFTLKISRVEAEDVGVYSCMQSIQLMSSFGQGTKLEIKR	0.077										
anti-MAdCAM monoclonal antibody 6.77.1 (antibody, human IgG4, kappa, V domains shown, human IgG4 kappa from hybridoma 6.77.1) VH: EVQLVESGGGLVKPGGSLRLSCAASGFTFSSYSMNWVRQAPGKGLEWVSSISSSSSYIYYADSVKGRFTISRDNAKNSLYLQMNSLRAEDTAVYYCARDGYSSGWSYYYYYGMDVWGQGTTVTVSS VL: DIVMTQTPLSLSVTPGQPASISCNSSQSLLLSDGKTYLNWYLQKPGQPPQLLIYEVSNRFSGVPDRFSGSGSGTDFTLKISRVEAEDVGVYSCMQSIQLMCSFGQGTKLEIKR		no binding					0.52	≤ 0.0067	≤ 1e-05	1.5e+06	0.64
anti-MAdCAM monoclonal antibody 7.16.6 (antibody, human IgG2, kappa, V domains shown, Alexa488-labelled in the sandwich ELISA, biotinylated for staining of human sections) VH: QVQLVQSGAEVKKPGASVKVSCKASGYTFTSYGINWVRQAPGQGLEWMGWISVYSGNTNYAQKVQGRVTMTADTSTSTAYMDLRSLRSDDTAVYYCAREGSSSSGDYYYGMDVWGQGTTVTVSS VL: DIVMTQTPLSLSVTPGQPASISCKSSQSLLHTDGTTYLYWYLQKPGQPPQLLIYEVSNRFSGVPDRFSGSGSGTDFTLKISRVEAEDVGIYYCMQNIQLPWTFGQGTKVEIKR		no binding									
modified anti-MAdCAM monoclonal antibody 6.67.1-mod (antibody, human IgG2, kappa, V domains shown) VH: QVQLQESGPGLVKPSETLSLTCTVSGDSISSNYWSWIRQPAGKGLEWIGRIYTSGGTNSNPSLRGRVTMSVDTSKNQFSLKLSSVTAADTAVYYCARDRITIIRGLIPSFFDYWGQGTLVTVSS VL: not shown	0.037										
anti-MAdCAM monoclonal antibody 6.73.2 (antibody, human IgG4, kappa, V domains shown, human IgG4 kappa from hybridoma 6.73.2) VH: EVQLLESGGDLVQPGGSLRLSCAASGFTFRSYAMNWVRQAPGKGLEWVSVISGRGGTTYYADSVKGRFTISRDNSKNTLYLQMNSLRAEDAAVYYCAKIAVAGEGLYYYYGMDVWGQGTTVTVSS VL: DIQMTQSPSSLSASVGDRVTFTCRASQNITNYLNWYQQKPGKAPKLLIYAASSLPRGVPSRFRGSGSGTDFTLTISSLQPEDFATYYCQQSYSNPPECGFGQGTTLDIKR		no binding				0.02	0.369	0.093	0.00013	1.4e+06	
anti-MAdCAM monoclonal antibody 6.14.2 (antibody, human IgG4, kappa, V domains shown, human IgG4 kappa from hybridoma 6.14.2) VH: EVQLLESGGGLVQPGGSLRLSCAASGLTFNNSAMTWVRQAPGKGLEWVSTTSGSGGTTYYADSVKGRFTISRDSPKNTLYLQMNSLRAEDTAVYYCAARGYSYGTTPYEYWGQGTLVTVSS VL: DIQMTQSPSSLSASVGDRVTITCRASRSISSYLNWYQQKPGKAPKVLIFFVSSLQSGVPSRFSGSGSGTDFTLTISSLQPEDFATYYCQQNYIPPITFGQGTRLEIRR		no binding	< 0.01	< 5e-06	500000	0.011	0.291	≤ 0.0077	≤ 1e-05	130000	0.53
anti-MAdCAM monoclonal antibody 9.8.2 (antibody, human IgG4, kappa, V domains shown, human IgG4 kappa from hybridoma 9.8.2) VH: QVQLVESGGGVVQPGRSLRLSCAASGFTFSSYGMHWVRQAPGKGLEWVAVIWYDGSNEYYADSVKGRFTISRDNSKNTLYLQMNSLRAEDTAVYYCARGAYHFAYWGQGTLVTVSS VL: DIQMTQSPSSLSASVGDRVTITCQASQDISNYLNWYQQKPGKAPKLLIYDASNLETGVPSRFSGSGSGTDFTFTISSLQPEDIATYSCQHSDNLSITFGQGTRLEIKR		no binding	0.0325	1.4e-05	440000	0.02	0.44	0.1	0.00023	2.3e+06	0.83
modified anti-MAdCAM monoclonal antibody 6.22.2-mod (antibody, human IgG2, kappa, V domains shown) VH: QVQLVESGGGVVQPGRSLRLSCAASGFTFSSDGMHWVRQAPGKGLEWVAIIWYDGSNKYYADSVKGRFTISRDNSKNTLYLQMNSLRAEDTAVYYCARDPGYYYGMDVWGQGTTVTVSS VL: EIVLTQSPDFQSVTPKEKVTITCRASQRIGSSLHWYQQKPDQSPKLLIKYASQSFSGVPSRFSGSGSGTDFTLTINSLEAEDAATYYCHQSGRLPLTFGGGTKVEIKR	0.058										

Source: patent US20190300605A1 (Pfizer, published 2019)
